The values below come from US12448436B2, “Antibody specifically binding to GRP94 or antigen-binding fragment thereof, and uses thereof” (KOOKMIN UNIVERSITY INDUSTRY ACADEMY COOPERATION FOUNDATION, priority 2020, dated 2025).

Positions count from the first letter of the chain named. Entries after “also recorded” stand apart in the source; their conditions may differ.

The labels stand for the following.
B1: B5: anti-GRP94 human IgG antibody; CDRs SEQ ID NOS: 1 to 6, VH SEQ ID NO: 7, VL SEQ ID NO: 8 (antibody, V domains shown)
VH: EVQLLESGGGLVQPGGSLRLSCAASGFTFSNYYMSWVRQAPGKGLEWVSGIYPNSGSTYYADSVKGRFTISRDNSKNTLYLQMNSLRAEDTAVYYCARDPLHPARFPFDYWGQGTLVTVSS
VL: QSVLTQPPSASGTPGQRVTISCTGSSSNIGNNAVSWYQQLPGTAPKLLIYADSHRPSGVPDRFSGSKSGTSASLAISGLRSEDEADYYCGAWDASLNAYVFGGGTKLTVL
modifications: Amino acid sequence of heavy chain variable of GRP94 B5; Amino acid sequence of light chain variable of GRP94 B5
B2: E5: anti-GRP94 human IgG antibody; CDRs SEQ ID NOS: 9 to 14, VH SEQ ID NO: 15, VL SEQ ID NO: 16 (antibody, V domains shown)
VH: EVQLLESGGGLVQPGGSLRLSCAASGFTFSNYAMSWVRQAPGKGLEWVSGISSSSGSTYYADSVKGRFTTSRDNSKNTLYLQMNSLRAEDTAVYYCARDRHPFSPNWFDYWGQGTLVTVSS
VL: B1 VL with T23S, S26P, N31S, A33T, S35T, G90A, A91S, A94D, A98G
modifications: Amino acid sequence of heavy chain variable of GRP94 E5; Amino acid sequence of light chain variable of GRP94 E5
B3: 3G7: anti-GRP94 human IgG antibody; CDRs SEQ ID NOS: 25 to 30, VH SEQ ID NO: 31, VL SEQ ID NO: 32 (antibody, V domains shown)
VH: EVQLLESGGGLVQPGGSLRLSCAASGFTFSNYSMSWVRQAPGKGLEWVSGIYYGSGNKYYADSVKGRFTISRDNSKNTLYLQMNSLRAEDTAVYYCAKNLASFDYWGQGTLVTVSS
VL: B1 VL with T23S, N31S, A33S, S35N, A51S, D52N, A91T, A94S, N97S, A98G
modifications: Amino acid sequence of heavy chain variable of GRP94 3G7; Amino acid sequence of light chain variable of GRP94 3G7

The test system of the first series is HCT116 cells. Put plainly: In vitro CRC proliferation assay, HCT116. The format is cell-based, human. Particulars: 20 μg/mL, end point, relative to the control PBS. As for the experimental part: The four anti-GRP94 human IgG antibodies B5, E5, 2H5, and 3G7 of the present disclosure were examined in vitro for effect on CRC cell proliferation. For use in the efficacy assay, the four cetuximab-resistant colorectal cancer cell lines HCT116, HT29, LoVo, and HCT-8 were each grown in a culture medium (HCT116, HCT8, HT29, and LoVo: RPMI1640+10% FBS+1% Penicillin-Streptomycin) at 37° C. in T-75 flask in a 5% CO2 incubator until reaching about 80-90% confluency. The culture medium was removed by suction and the cells were washed with 10 mL of phosphate buffered saline (hereinafter PBS). After removal of PBS by suction, the cells were treated 2 mL of TrypLE Express Enzyme at 37° C. for 3 minutes in a 5% CO2 incubator. Thereafter, the cells were added with 8 mL of the culture medium, transferred to 15-mL tube, and centrifuged at 500×g for 5 minutes. After removal of the supernatant, the cells were suspended in the culture medium. From a small portion of the cell suspension, the cells were counted using the Countess II Automated Cell Counter. […] The 96-well plates were mounted on the Incucyte Zoom system. With the microscope magnification set at 4×, images were collected at intervals of 2 hours for 72 hours. From the collected images, cell growth was monitored using the IncuCyte FLR live content imaging system (Essen Bioscience, Ann Arbor, MI, USA).
On to B1, for which the “cell growth inhibitory ability” value is “statistically significant; also recorded: excellent inhibitory activity”.
Take B2: the “cell growth inhibitory ability” value was “statistically significant; also recorded: excellent inhibitory activity”.
Same read-out and setting: the same measure for B3: “statistically significant; also recorded: excellent inhibitory activity”.

Test system in a further series: not listed separately
Put plainly: Protein aggregation index (UV absorbance 280/340 nm). The format is physicochemical. The conditions noted are these: antibody in PBS; 100×(Abs340/[Abs280−Abs340]); control HCl-aggregated GRP94 antigen. As for the experimental part:
To evaluate the production the antibodies (B5, E5, 2H5, and 3G7) of the present disclosure and the antibody aggregation after purification, each of the antibodies was added to PBS and absorbance was read at 280 nm and 340 nm using NanoDrop 2000 (Thermo Fisher Scientific). The protein aggregation index was calculated from UV absorbance according to the following equation. As a control, the GRP94 antigen that was induced by treatment with HCl to aggregate was used. Protein Aggregation Index=100×(Abs340/[Abs280−Abs340]) Equation 1
With B1, the protein aggregation index result is “low”.
On the same count and under the same terms, the same measure for B2: “low”.
The same measure, in the same setting: the same measure for B3: “low”.
